Assay: label from the status in PepcDB records

Sequence | protein production
MRGDDMHIYELVSRDRTHPVRIYLLHSEYWTEDEFYNLLLEAFQRSSASDWHLQILEVSKYLVTAHGFVEAGGLQEIGFPGELSKTEVRRRINAFLGKDRSD | not failed
MRGNDETVLAQALDWLRQGRRVALLTVLGTYGASPRPPGALAAIRDDGVICGSVSGGCVEDDLRREIAEGGVFGAAPSARVRSFGVSVEERQRYRLPCGNSLRVAVETMPDPAQLEALLAAVRQRRCLWRRVDYRDGAAHLLESGPPAAFAEDEAGFSALHGPLWRLLIIGGAELGRYLAQIALTLDYAVTVCEPREEYAAGWEPDGVALSAQMPDDLVLAFGCDERTAVVAVTHDPKLDDLALMEALRLPCHYVGALGSATTTMKRKARLAEHFGLTPAQLDRLHGPVGLPIGSRTPAEIAVSIAADLIASRSACHREGVHGEEGSCRA | failed
MRHDIRAPETFRRYCLPSRPRGCPLKTYVIGDVHGRADLLKALPSHIEENDPNGCGYRVIFLGDIIDRGPDSMKAMEMVVRELNQNPESRLILGNHEEFMLLFLDRPDKREIVFDHWMRNGGLAAAASYGLNVGGRYGRIEEAHESLLELLHRRQNHIDAMRRAASLINDGANVFVHAGLRPGVPFEQQTTKDLRTIRSGFLDNDFDFGAMVVHGHTVTSSGLPEIRRSRIALDTGAGAGGCLSMMMVDDDGARTFFQSGSAREVVKVELSQRPDEP | failed
MRHLPYPLLGLFLALSSTGAALAGEQYYPLDKGSAPYAVAPSAQGAVWYGADGGHSLGRLDPTSGESVQVPLGEGARPRAIVSDESGNAWVLDSGLNAILRIGGERLGSERFPLPAKAAPAGLESAVFDDDGRLWFTGSRGFHGRLDPARRLVEVWPSPQGKAANGICVTPDGEVWYAQDDALVHVDPLDGSAERLPAPEGTKALRGIGADSIGRLWASDSGGARLYRYDPSDASWQSWPLPDSQARPDSLRVDAMDRVWLHDAASGALLRFDSEQATFRVLPSDRPAPGNALLGGRPGETWSAEPAADRLRVVRD | failed
MRHYETMFILKPTLVEEEIKSKIEFYKEVITKHHGVIETSLDMGMRNLAYEIKKHKRGYYYVAYFKAEPSMIVELERLYRINEDVLRFIVIKYESKKEVEAWHALVDRANKKPSHAKEKHEKTEHTHSHHTEEAESVGSHSE | failed
MRIAALFTCIIGVFMLATSVQAAQPADITRLSNGLTVLVLKDDRFPLASLRLYVHAGSAFETPEEAGISHLLEHMVFKGTVKRPKGQVARDVESVGGYLNAATSFDYTVYLTDMPSTQWKLGMDVLRDMAFEPALDPAELESEKDVVIAELQRGEDSPDSRIFQSLQAGTLKGTTYERPIIGYRETIRATTADTMRAYIRKHYQPQSMLLTVVGNVDPAEVRAEAERLFGGLTNDQNITPPAAIDARAFAHGPVVNVEHGPWKKVYLGVALPVPGLKALQAAQLDMLSQLLGGDPTALLYRTFKYEKQLVDDISVANYSFERVGMLYITAELDADKVETFWKELTTMLAGLKADAFTEQEFERARLNIEDGLYRSKETVAGLASKEGYFQFFSDGPQGEANYLQAVRDVERPQLEALIRDWLRPERLTVSVLLPEGTKAPALAATLKSTWPSKGKAAEEGNAAAVGKTETVDLGGGRKVVLIPDTTLPYTALDMVFSGGNALLDQNRQGLAALTASVLTKGTLKHDAPTLEAFQSDRAASLGASAGRRTFTLSLREPSRFDGDMFGLLHEVLTTPALAPDEVAREKRNQVASIRAREDQPLGLAFRHLTPFLFPGHSYGFYHLGQPETVEGFTRDDVKAFWARQAAQPWVMSVAGSFDREAVLRFAKSLPAPSGKPVSLDAPAWTPEKALDLRLPERNQAHLLLVFPTVGLAHKDTPALELLQSVLAGQSGLLFRDMRDKQGLGYTVTAMNWQSDLAGFMVLYIGTEPGKLEQAEAGFRKVIDQLHATALPDEELRRGKNQMRGDYYREHQRLGSRSSEAAMLTSQGYPLLFNREVIDKAEKLAPSDLERVARTYLDMNKVRVVKVLP | failed
MRIASLVPSITELLFDLGLADQLVARTGFCIHPEPAVRAVAKVGGTKDVKLDRLRALAPTHVVVNIDENRRETVDEIRTFVPHVIVTHPCAPEDNLALYRLLGGIFGRLEHHHHHH | failed
MRIAVVGATGRIGSKLTRTLLGAGHQVKALSRGGAALEALVEAGAEPFLGSFDTGAGALDTFFQDVEAAFLMVKTDWNNIEGHYPAVAQRFVDALRGSPVKLAVSLSAMGSDVDGKTGHFELFHHLDQRLNELNDIDMVHLRAAWFMENTLAWTASVAKYGRLAWFYEPDLKMPWVATDDIAGLAAKELTNPTGDHRVIRETGSEDLTMNELAAMIGREIGKPVEYRFIDRGRKEIENEYLARFGTPEHWLDDSRSADALNHGVVRFQGGDDVRPVLPTTMEAFLKTIWTPRYLEALASEGKPETFEMWCAR | failed
MRICLFLCLCLCMASPALAQVAVFPALSGKTDAQTLVVYSSLDEPLATPMIEGFQKANPDIAVHYEDMLTGEIYDRIVKETDAGKKTADFAFSSAMDLQVKLSNDGYAQRSDLAMSARWPAWANWRNTAYALTFEPAVFVYHKPSFTTEKPPATRAEFVDYLERHAKEVHGRIATYDIERSGVGFLFMSRDQEQFGDIWSVIKAMGAAGVKVYSTSSAILERVSDGRFVLGYNILGSYAADWASRHPDVGIVLPKDYTVVMSRIGLVPEAAANPELGRRYLEFFMSKEGQTIMARQLQIPAVSPEVAGENTANTMQAIHGAQLRPVPVSPGLMVYLDQVKRSR | not failed
MRIDKFLQSVGLVKRRVLATDMCNVGAVWLNGSCAKASKEVKAGDTISLHYLKGIEEYTILQIPALKNVPRKDTHLYIAPKTKE | failed
MRIFGKARHRPSASWRQATDRAFTLIGDGRYEDAGALLTRAADLEPWLSESWFNLALLHKFRHDWEQARAAGLRAVALLDRDIGAPDWWNVGIAATALQDWPLARRAWQAYGLRTPGGATDAGEPLGMDLGSAAVRLSPEGEAEVVWGRRLDPARVEVLSIPLPSSGRRWGEVVLHDGVPHGERTTSAGHSYPVFDEIELWAPSPVPTWVVLLEAATESDRDALEQLAADAGFAAEDWSSSVRLLCRMCSESRMPSDEGDGEHLDPHDHSEPGHPGPLGHRTDGQLWVPERECGVAAPAGLVKGLLDGWVADSPDSRDWRDLEEVC | failed
MRIFIIKSSTAHTAFDYSIKDIPGTSGRLDLICRSLNAAFQLSHSFRKNVRVYTVLYGPPDPPKTIRFEGAKIKPKTLNPDEVSTAKLIGKILNAGKDIKEPTKEREVLPGIYISRMTFEDVVRKNIKYNLYLLEENGVDIEKVKFPQDNVGFILGDQNGFTEEELNFLEGLVPKITIGPKPYLTSHVIAFVNIYLDRIGIP | failed
MRIHSIILLLFLLVISPVAGSISITDSTASKFDRYFYEGVRQREQENYAAAFDIFRYCHRLNPNDAALLSELGKLYIAIGRQEEGTRYLEQAYRLYPDNKNYGNILGAVYERQGRADDAVRLYEEMSEQFPSEDELRFKLANMYVQAGEIDKAIYIYNRMEAQNAVNAADASNYAEIRARLYLMTGQTNKALNELRRLCNRFPEVNEFRLKYAGTLLDSEKYDEAYEQLQLIARTDSTSGLYHFAMASYYLGTNEKEAAINEMIKVAADKDVAPEQKLPIILRFIGTDTDEEDAPKKEYNILLEKILASHPTEVDARLFYAELLEMQGDSIHAMEVCRPITEFAPKEERAWKFMLGRAVTGQNHTEVHRISEQARQYLPGVPLFYLYDAISYYIEKKGSEAKHILQEALEHIDAEKDPNGLSDIYSQLGDLAYEENKPEEAFANYEKALELNPRNVGVLNNYAYFLAKEGGDLAKAERMAAQCVKLLPDNAVSLDTYGWVFFLRENYTLAKLYIEKALGLAADNPDADVVEHHGDVLYMLGEKEKAMLEWKRAKEIGGGGSPMLDKKIEQGKYIPEKKK | failed
MRILADTNVIIDALTSREPWNKSAEEIFLMAANHTIEMYITASSATDIYYLIRKHLHNTETAKMIMGKLYSLTGILEVTADDCMDALASAISDYEDAVVEKVASRKDMDYIVTRNIKDYQAGGTKIILPDDFVKLVEEELEHHHHHH | failed
MRINLQSLGCRLNEAELESWAREFQAAGHRLVSETGDADLIVLNSCAVTAEAVRKSRQMIRRTQRLSPRARLVLSGCYATLHGDEAAALGVDLVVSNADKSRLVEIAARELALEAMPEFSTEPGEAALFALGRQRAFVKVQDGCRYRCTFCIVTVARGEERSRLPAEVIREIRRLQAEGVQEVVLTGVHLGGYGSDLGLPLDALIRSILQETEIPRLRLGSLEPWDLPPGFFDLFENPRFMPHLHLPLQSGSDTVLKRMARRCKSEEFARLADHARRQVPDINITTDIIVGFPGETEREWEESLQFIETIGFGDIHVFTYSVREGTKAAAMGGHVPAEIKKERSRVLHELALGQKRALLGRFVGREMPVLWENRRDGADRGYTPNYLRVAIQTPETGLTNRITPVRLVKVDASGEFLWCGPVTLPPAAPADTRWRR | failed
MRINTRRKKWAAVAVVTLVSVIASVIVTVIVVGTLDPQSLRPAIIVPLLVAPLATHWGAERLLEIDKLNQQLAHLNRIDQMTQLYNRACLLEKLEQEPEEAGMILIADIDHFKQINDTYGHDVGDLVIIEVARVLQRSSLPEGIAARFGGEEFVIYVPRLDLEAAEFRAEAIRQAVEAQSVMIDGRKLSCTISIGIEIRQMQENVGDVLKRADEALYRAKAQGRNQVVAARRLARAGKSRETAQARRAP | failed
MRIPYIDCGMNSLFFITLLGSFFTVAQANSSSDLLELPATNSALAIKSVLMAMTPNNDAILVVGERGHIINWQNDDNWQQLQSPVSVAITDVTILSDGSKVAVGHDGVILKVDSNSTTWRKVFTGKEITQFQIAQLKQQYQSLEQVILQTQDEDELEELTYQLDDLTFAIEDNQLELKSGPNKPLLSVTSTSNDTLFASGAYGILLSSKDKGETWQLVSNHLDNPDRFHLNTVIATADDQLYIVGENGMGFHSTDVGQTWSVMTLPYSGSLFGILANTVKTHTISTDDINSTKNKTQLVAFGLQGNIMVSLDGGGNWQHIKLPRSTSLLGGNFSKQGKVYLVGHGGVIVSFYPENLSTLTIKKHPSGAALSSVLVKDNSLILAGQFGISQWPIEAEE | failed
MRIQIQKLSYRDIDSFIELLDVFEEVFEMKNFEMPSVEHLEELLGKDDFFVFVARSEGTIVGGLTAYSLTQYFSKSPLLYIYDVAVMKRHQRKGIGKKLIMGIKDYCKDSDIGEIIVQADEADEHAIEFYQSTGAKAAKVVQFYYALNG | failed
MRISCMSSFLTSDVLIAFSVTFLAGLATLLGGAIVLFFKQPSLRLLSFGLAFSAGAMVYISLTEILNKSIHSFSEVFSAKVGFAFATFAFLTGVIAILLLDRCVPNPHTMLEKTTAQQLDQTQLRRTGLLTMLAITAHNFPEGLATFFATLDSPILGAPLAVAIAIHNIPEGIAIAVPVYMATGQKSYAIWASLLSGLAEPLGAALGYFILAPYMGATMYGIIFGLIAGVMVYLAMDELLPAAKKYSQGHETVYGLVTGMAALATSLVLFQWV | failed
MRISKMLVTELNIYPLKSARGIALKESAVSAEGLPGDRRAMLTDPSGHFITQRELPAIATVLARHEDGGMALSRERSGEIFARPSGQRMDVAVWKSIVSANIADDETNDTLSAWLGREVKLVFFDDAAKRIASLEWTGNETPVTFADGYQILVTTTASLAALNDNMRGNGEDAVGMERFRPNIVLETEEAWAEDRWAAIEIGGIRFDLVKPCARCIMTTQDQMTGSRDVPSPMKAMGRIRMSGDRRVPGPLFGWNVTPRGEGRLSVGDVARVVEERPEGWAIKRRLEHHHHHH | not failed
MRIVIAGGHGQIALRLERLLAARGDEVAGIVRKAEQADDLRAAGAEPVVLDLESASVEEVAERLRGADAAVFAAGAGPGSGVARKDTVDKAAAVLFADAAVRAGVRRFLIVSSMGADPGHQGDEIFDVYLRAKGEADAYVSSLDALDWTILRPGALTDDAGTGLVRLEAHTGRGPVPRDDVAAVLAELVDTPATNGLALELISGSAPVSVAVKSVAGN | failed

Source: a protein production outcome set (Wang et al. 2014)
